Source: US20120172293A1 (Takeda / Millennium, published 2012)
Non-standard residues stand in square brackets, D forms with d. No end group written: not given here. Dap(CONH2) = NC(=O)NC[C@H](N)C(=O)O; 3Pal = N[C@@H](Cc1cccnc1)C(=O)O; 4Pal = N[C@@H](Cc1ccncc1)C(=O)O; Cha = N[C@@H](CC1CCCCC1)C(=O)O; Cit = NC(=O)NCCC[C@H](N)C(=O)O; d(αMeP) = C[C@]1(C(=O)O)CCCN1; αMeP = C[C@@]1(C(=O)O)CCCN1; NMeS = CN[C@@H](CO)C(=O)O; hSer = N[C@@H](CCO)C(=O)O; NMeA = CN[C@@H](C)C(=O)O; Nle = CCCC[C@H](N)C(=O)O; Orn = NCCC[C@H](N)C(=O)O; dNMeA = CN[C@H](C)C(=O)O; dAze = O=C(O)[C@H]1CCN1; Aib = CC(C)(N)C(=O)O; GABA = NCCCC(=O)O

Key:
[1] = target: human Y2 receptor (human) (UniProt P49146); assay: cell-based or functional assay
[2] = target: human Y2 receptor (human) (UniProt P49146); assay: RBA: [125I]-PYY displacement, hY2R/CHO membranes

Chain of human Y2 receptor (human) (P49146 whole entry): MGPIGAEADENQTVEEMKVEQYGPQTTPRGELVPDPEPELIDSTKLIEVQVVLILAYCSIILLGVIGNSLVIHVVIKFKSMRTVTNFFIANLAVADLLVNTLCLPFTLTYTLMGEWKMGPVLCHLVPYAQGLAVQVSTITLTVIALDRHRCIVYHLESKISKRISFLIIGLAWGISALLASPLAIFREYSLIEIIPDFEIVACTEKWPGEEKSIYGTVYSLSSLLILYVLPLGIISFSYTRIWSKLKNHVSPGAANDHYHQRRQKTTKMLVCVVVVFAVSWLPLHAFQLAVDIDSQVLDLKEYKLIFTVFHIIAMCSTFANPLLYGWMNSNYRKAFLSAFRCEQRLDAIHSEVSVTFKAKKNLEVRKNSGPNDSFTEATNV

Row | GBA EC50 Ratio (vs PYY(3-36)), [35S]GTPγS [1] | IC50 Ratio (vs PYY(3-36)) [2] | Binder
1 | 1.7 | 5.5 | Ac-S[dP]R[Cit][Cha][Cha]NL[Aib]TRQR[Cha]-NH2 (SMILES CC(=O)N[C@@H](CO)C(=O)N1CCC[C@@H]1C(=O)N[C@@H](CCCNC(=N)N)C(=O)N[C@@H](CCCNC(N)=O)C(=O)N[C@@H](CC1CCCCC1)C(=O)N[C@@H](CC1CCCCC1)C(=O)N[C@@H](CC(N)=O)C(=O)N[C@@H](CC(C)C)C(=O)NC(C)(C)C(=O)N[C@H](C(=O)N[C@@H](CCCNC(=N)N)C(=O)N[C@@H](CCC(N)=O)C(=O)N[C@@H](CCCNC(=N)N)C(=O)N[C@@H](CC1CCCCC1)C(N)=O)[C@@H](C)O) [Ac-[D-Pro24, Cit26, Cha27,28,36, Aib31]-PYY(23-36)]
2 | 1.3 | 2.8 | Ac-S[αMeP]RH[Cha][Cha]NL[Aib]TRQR[Cha]-NH2 (SMILES CC(=O)N[C@@H](CO)C(=O)N1CCC[C@@]1(C)C(=O)N[C@@H](CCCNC(=N)N)C(=O)N[C@@H](Cc1c[nH]cn1)C(=O)N[C@@H](CC1CCCCC1)C(=O)N[C@@H](CC1CCCCC1)C(=O)N[C@@H](CC(N)=O)C(=O)N[C@@H](CC(C)C)C(=O)NC(C)(C)C(=O)N[C@H](C(=O)N[C@@H](CCCNC(=N)N)C(=O)N[C@@H](CCC(N)=O)C(=O)N[C@@H](CCCNC(=N)N)C(=O)N[C@@H](CC1CCCCC1)C(N)=O)[C@@H](C)O) [Ac-[αMePro24, Cha27,28,36, Aib31]-PYY(23-36)]
3 | 3 | 5.8 | Ac-S[GABA]RH[Cha][Cha]NL[Aib]TRQR[Cha]-NH2 (SMILES CC(=O)N[C@@H](CO)C(=O)NCCCC(=O)N[C@@H](CCCNC(=N)N)C(=O)N[C@@H](Cc1c[nH]cn1)C(=O)N[C@@H](CC1CCCCC1)C(=O)N[C@@H](CC1CCCCC1)C(=O)N[C@@H](CC(N)=O)C(=O)N[C@@H](CC(C)C)C(=O)NC(C)(C)C(=O)N[C@H](C(=O)N[C@@H](CCCNC(=N)N)C(=O)N[C@@H](CCC(N)=O)C(=O)N[C@@H](CCCNC(=N)N)C(=O)N[C@@H](CC1CCCCC1)C(N)=O)[C@@H](C)O) [Ac-[GABA24, Cha27,28,36, Aib31]-PYY(23-36)]
4 | 2.6 | 20 | Ac-S[dP][Nle][4Pal][Cha][Cha]NL[Aib]TRQR[Cha]-NH2 (SMILES CCCC[C@H](NC(=O)[C@H]1CCCN1C(=O)[C@H](CO)NC(C)=O)C(=O)N[C@@H](Cc1ccncc1)C(=O)N[C@@H](CC1CCCCC1)C(=O)N[C@@H](CC1CCCCC1)C(=O)N[C@@H](CC(N)=O)C(=O)N[C@@H](CC(C)C)C(=O)NC(C)(C)C(=O)N[C@H](C(=O)N[C@@H](CCCNC(=N)N)C(=O)N[C@@H](CCC(N)=O)C(=O)N[C@@H](CCCNC(=N)N)C(=O)N[C@@H](CC1CCCCC1)C(N)=O)[C@@H](C)O) [Ac-[D-Pro24, Nle25, Pya(4)26, Cha27,28,36, Aib31]-PYY(23-36)]
5 | 2.6 | 4.5 | Ac-S[d(αMeP)]RH[Cha][Cha]NL[Aib]TRQR[Cha]-NH2 (SMILES CC(=O)N[C@@H](CO)C(=O)N1CCC[C@]1(C)C(=O)N[C@@H](CCCNC(=N)N)C(=O)N[C@@H](Cc1c[nH]cn1)C(=O)N[C@@H](CC1CCCCC1)C(=O)N[C@@H](CC1CCCCC1)C(=O)N[C@@H](CC(N)=O)C(=O)N[C@@H](CC(C)C)C(=O)NC(C)(C)C(=O)N[C@H](C(=O)N[C@@H](CCCNC(=N)N)C(=O)N[C@@H](CCC(N)=O)C(=O)N[C@@H](CCCNC(=N)N)C(=O)N[C@@H](CC1CCCCC1)C(N)=O)[C@@H](C)O) [Ac-[D-αMePro24, Cha27,28,36, Aib31]-PYY(23-36)]
6 | 1.2 | 3.3 | Ac-S[dP]R[3Pal][Cha][Cha]NL[Aib]TRQR[Cha]-NH2 (SMILES CC(=O)N[C@@H](CO)C(=O)N1CCC[C@@H]1C(=O)N[C@@H](CCCNC(=N)N)C(=O)N[C@@H](Cc1cccnc1)C(=O)N[C@@H](CC1CCCCC1)C(=O)N[C@@H](CC1CCCCC1)C(=O)N[C@@H](CC(N)=O)C(=O)N[C@@H](CC(C)C)C(=O)NC(C)(C)C(=O)N[C@H](C(=O)N[C@@H](CCCNC(=N)N)C(=O)N[C@@H](CCC(N)=O)C(=O)N[C@@H](CCCNC(=N)N)C(=O)N[C@@H](CC1CCCCC1)C(N)=O)[C@@H](C)O) [Ac-[D-Pro24, Pya(3)26, Cha27,28,36, Aib31]-PYY(23-36)]
7 | 5.4 | 11 | Ac-S[dP]R[hSer][Cha][Aib]NL[Aib]TRQR[Cha]-NH2 (SMILES CC(=O)N[C@@H](CO)C(=O)N1CCC[C@@H]1C(=O)N[C@@H](CCCNC(=N)N)C(=O)N[C@@H](CCO)C(=O)N[C@@H](CC1CCCCC1)C(=O)NC(C)(C)C(=O)N[C@@H](CC(N)=O)C(=O)N[C@@H](CC(C)C)C(=O)NC(C)(C)C(=O)N[C@H](C(=O)N[C@@H](CCCNC(=N)N)C(=O)N[C@@H](CCC(N)=O)C(=O)N[C@@H](CCCNC(=N)N)C(=O)N[C@@H](CC1CCCCC1)C(N)=O)[C@@H](C)O) [Ac-[D-Pro24, Hse26, Cha27,36, Aib28,31]-PYY(23-36)]
8 | 0.72 | 0.6 | [NMeA]S[dP]RH[Cha][Cha]NL[Aib]TRQR[Cha]-NH2 (N-terminus assumed; SMILES CN[C@@H](C)C(=O)N[C@@H](CO)C(=O)N1CCC[C@@H]1C(=O)N[C@@H](CCCNC(=N)N)C(=O)N[C@@H](Cc1c[nH]cn1)C(=O)N[C@@H](CC1CCCCC1)C(=O)N[C@@H](CC1CCCCC1)C(=O)N[C@@H](CC(N)=O)C(=O)N[C@@H](CC(C)C)C(=O)NC(C)(C)C(=O)N[C@H](C(=O)N[C@@H](CCCNC(=N)N)C(=O)N[C@@H](CCC(N)=O)C(=O)N[C@@H](CCCNC(=N)N)C(=O)N[C@@H](CC1CCCCC1)C(N)=O)[C@@H](C)O) [[MeAla22, D-Pro24, Cha27,28,36, Aib31]-PYY(22-36)]
9 | 2.2 | 4.2 | Ac-S[dP]R[Orn][Cha][Cha]NL[Aib]TRQR[Cha]-NH2 (SMILES CC(=O)N[C@@H](CO)C(=O)N1CCC[C@@H]1C(=O)N[C@@H](CCCNC(=N)N)C(=O)N[C@@H](CCCN)C(=O)N[C@@H](CC1CCCCC1)C(=O)N[C@@H](CC1CCCCC1)C(=O)N[C@@H](CC(N)=O)C(=O)N[C@@H](CC(C)C)C(=O)NC(C)(C)C(=O)N[C@H](C(=O)N[C@@H](CCCNC(=N)N)C(=O)N[C@@H](CCC(N)=O)C(=O)N[C@@H](CCCNC(=N)N)C(=O)N[C@@H](CC1CCCCC1)C(N)=O)[C@@H](C)O) [Ac-[D-Pro24, Orn26, Cha27,28,36, Aib31]-PYY(23-36)]
10 | 7.8 | 12 | Ac-A[NMeS][dP]RH[Cha][Cha]NL[Aib]TRQR[Cha]-NH2 (SMILES CC(=O)N[C@@H](C)C(=O)N(C)[C@@H](CO)C(=O)N1CCC[C@@H]1C(=O)N[C@@H](CCCNC(=N)N)C(=O)N[C@@H](Cc1c[nH]cn1)C(=O)N[C@@H](CC1CCCCC1)C(=O)N[C@@H](CC1CCCCC1)C(=O)N[C@@H](CC(N)=O)C(=O)N[C@@H](CC(C)C)C(=O)NC(C)(C)C(=O)N[C@H](C(=O)N[C@@H](CCCNC(=N)N)C(=O)N[C@@H](CCC(N)=O)C(=O)N[C@@H](CCCNC(=N)N)C(=O)N[C@@H](CC1CCCCC1)C(N)=O)[C@@H](C)O) [Ac-[MeSer23, D-Pro24, Cha27,28,36, Aib31]-PYY(22-36)]
11 | 1.3 | 4.6 | Ac-E[dP]R[4Pal][Cha][Cha]NL[Aib]TRQR[Cha]-NH2 (SMILES CC(=O)N[C@@H](CCC(=O)O)C(=O)N1CCC[C@@H]1C(=O)N[C@@H](CCCNC(=N)N)C(=O)N[C@@H](Cc1ccncc1)C(=O)N[C@@H](CC1CCCCC1)C(=O)N[C@@H](CC1CCCCC1)C(=O)N[C@@H](CC(N)=O)C(=O)N[C@@H](CC(C)C)C(=O)NC(C)(C)C(=O)N[C@H](C(=O)N[C@@H](CCCNC(=N)N)C(=O)N[C@@H](CCC(N)=O)C(=O)N[C@@H](CCCNC(=N)N)C(=O)N[C@@H](CC1CCCCC1)C(N)=O)[C@@H](C)O) [Ac-[Glu23, D-Pro24, Pya(4)26, Cha27,28,36, Aib31]-PYY(23-36)]
12 | 6.1 | 3.5 | Ac-[dNMeA]S[dP]RH[Cha][Cha]NL[Aib]TRQR[Cha]-NH2 (SMILES CC(=O)N(C)[C@H](C)C(=O)N[C@@H](CO)C(=O)N1CCC[C@@H]1C(=O)N[C@@H](CCCNC(=N)N)C(=O)N[C@@H](Cc1c[nH]cn1)C(=O)N[C@@H](CC1CCCCC1)C(=O)N[C@@H](CC1CCCCC1)C(=O)N[C@@H](CC(N)=O)C(=O)N[C@@H](CC(C)C)C(=O)NC(C)(C)C(=O)N[C@H](C(=O)N[C@@H](CCCNC(=N)N)C(=O)N[C@@H](CCC(N)=O)C(=O)N[C@@H](CCCNC(=N)N)C(=O)N[C@@H](CC1CCCCC1)C(N)=O)[C@@H](C)O) [Ac-[D-MeAla22, D-Pro24, Cha27,28,36, Aib31]-PYY(22-36)]
13 | 2.2 | 12 | Ac-S[dP]R[Dap(CONH2)][Cha][Cha]NL[Aib]TRQR[Cha]-NH2 (SMILES CC(=O)N[C@@H](CO)C(=O)N1CCC[C@@H]1C(=O)N[C@@H](CCCNC(=N)N)C(=O)N[C@@H](CNC(N)=O)C(=O)N[C@@H](CC1CCCCC1)C(=O)N[C@@H](CC1CCCCC1)C(=O)N[C@@H](CC(N)=O)C(=O)N[C@@H](CC(C)C)C(=O)NC(C)(C)C(=O)N[C@H](C(=O)N[C@@H](CCCNC(=N)N)C(=O)N[C@@H](CCC(N)=O)C(=O)N[C@@H](CCCNC(=N)N)C(=O)N[C@@H](CC1CCCCC1)C(N)=O)[C@@H](C)O) [Ac-[D-Pro24, Alb26, Cha27,28,36, Aib31]-PYY(23-36)]
14 | 1.3 | 1.7 | Ac-S[dAze]RH[Cha][Cha]NL[Aib]TRQR[Cha]-NH2 (SMILES CC(=O)N[C@@H](CO)C(=O)N1CC[C@@H]1C(=O)N[C@@H](CCCNC(=N)N)C(=O)N[C@@H](Cc1c[nH]cn1)C(=O)N[C@@H](CC1CCCCC1)C(=O)N[C@@H](CC1CCCCC1)C(=O)N[C@@H](CC(N)=O)C(=O)N[C@@H](CC(C)C)C(=O)NC(C)(C)C(=O)N[C@H](C(=O)N[C@@H](CCCNC(=N)N)C(=O)N[C@@H](CCC(N)=O)C(=O)N[C@@H](CCCNC(=N)N)C(=O)N[C@@H](CC1CCCCC1)C(N)=O)[C@@H](C)O) [Ac-[D-Aze(2)24, Cha27,28,36, Aib31]-PYY(23-36)]
